The values that follow come from PMC11667672.

In series [1] the target is T1, His41 (UniProt position 3304, VYCPRHVICTS). As to the kind of experiment: kinetics. To be noted: 150 mM NaCl in constant-ionic-strength mixed buffers.
The target in series [2] is T2, Cys145 (UniProt position 3408, FLNGSCGSVGF). Briefly: kinetics. To be noted: 150 mM NaCl in constant-ionic-strength mixed buffers.
In series [3] the target is T1, His41. As to the kind of experiment: chemical modification. The note with it: preincubation with DEPC on ice for 10-60 s; residual activity assay temperature per Table 1 footnote 25 °C; 150 mM NaCl in constant-ionic-strength mixed buffers; free enzyme (apo), 2 µM.
For series [4], the target named is T2, Cys145. As to the kind of experiment: chemical modification. To be noted: preincubation with IAM on ice; residual activity assayed at 25 °C (Table 1 footnote says 25 °C); 150 mM NaCl in constant-ionic-strength mixed buffers; free enzyme (apo), 2 µM.
The target of series [5] is Cys145 (UniProt position 3385, FLNGSCGSVGF). As to the kind of experiment: chemical modification. The note with it: cited from earlier work.
Where [6] appears, read: 25 °C (Table 1 footnote), apo (free) enzyme.
Setting [7] is: 25 °C, free enzyme (kcat/Ka reports on free enzyme and free substrate).
[8] abbreviates: 25 °C, free enzyme binding the inhibitor.

In the case of “3-chymotrypsin-like protease (3CL-PR; Main protease, Mpro, nsp5) (Severe acute respiratory syndrome coronavirus 2 (SARS-CoV-2))”, the pKa (usually the negative logarithm of the acid dissociation constant) is 6.2 ± 0.3 in series [1] (setting [6]); 5.9 ± 0.1 in series [1] (setting [7]); 6.5 ± 0.2 in series [1] (setting [8]); 6.10 ± 0.07 in series [1] (25 °C, free enzyme in D2O); 8.2 ± 0.4 in series [2] (setting [6]); 8.39 ± 0.07 in series [2] (setting [7]). Besides, the pKa in series [2] (setting [8]) is 8.5 ± 0.1; in series [2] (25 °C, free enzyme in D2O), 9.06 ± 0.06; in series [3] it was 6.05 ± 0.07; in series [4], 7.8 ± 0.1.
Consider “3-chymotrypsin-like protease (3CLpro, Main protease, nsp5) (Severe acute respiratory syndrome coronavirus (SARS-CoV))”, for which the pKa in series [5] is reported as 7.8 ± 0.1.
